The text below walks through data of PMC4658161, “Mutually Exclusive Roles of SHARPIN in Integrin Inactivation and NF-κB Signaling” (PLoS ONE, 2015).

The experiment addresses T1, recombinant full-length human ITGAL-ITGB2 (human, UniProt P20701 26-1170; P05107 23-769).
T1 construct: integrin alpha L (ITGAL), human, full-length; integrin beta 2 (ITGB2), human, full-length; also called full-length ITGAL-ITGB2; LFA-1; source: bought: Origene
Kind of experiment: far-Western; GST-SHARPIN (WT, fragments or point mutants) with recombinant full-length ITGAL-ITGB2 or recombinant RNF31; which partner was on the membrane is not told; performed as described in ref. 5. The settings on record: both partners purified.

Numbering of substitutions follows the chain as printed.

T1 sequence (P20701 26-1170, chain 1 of 2): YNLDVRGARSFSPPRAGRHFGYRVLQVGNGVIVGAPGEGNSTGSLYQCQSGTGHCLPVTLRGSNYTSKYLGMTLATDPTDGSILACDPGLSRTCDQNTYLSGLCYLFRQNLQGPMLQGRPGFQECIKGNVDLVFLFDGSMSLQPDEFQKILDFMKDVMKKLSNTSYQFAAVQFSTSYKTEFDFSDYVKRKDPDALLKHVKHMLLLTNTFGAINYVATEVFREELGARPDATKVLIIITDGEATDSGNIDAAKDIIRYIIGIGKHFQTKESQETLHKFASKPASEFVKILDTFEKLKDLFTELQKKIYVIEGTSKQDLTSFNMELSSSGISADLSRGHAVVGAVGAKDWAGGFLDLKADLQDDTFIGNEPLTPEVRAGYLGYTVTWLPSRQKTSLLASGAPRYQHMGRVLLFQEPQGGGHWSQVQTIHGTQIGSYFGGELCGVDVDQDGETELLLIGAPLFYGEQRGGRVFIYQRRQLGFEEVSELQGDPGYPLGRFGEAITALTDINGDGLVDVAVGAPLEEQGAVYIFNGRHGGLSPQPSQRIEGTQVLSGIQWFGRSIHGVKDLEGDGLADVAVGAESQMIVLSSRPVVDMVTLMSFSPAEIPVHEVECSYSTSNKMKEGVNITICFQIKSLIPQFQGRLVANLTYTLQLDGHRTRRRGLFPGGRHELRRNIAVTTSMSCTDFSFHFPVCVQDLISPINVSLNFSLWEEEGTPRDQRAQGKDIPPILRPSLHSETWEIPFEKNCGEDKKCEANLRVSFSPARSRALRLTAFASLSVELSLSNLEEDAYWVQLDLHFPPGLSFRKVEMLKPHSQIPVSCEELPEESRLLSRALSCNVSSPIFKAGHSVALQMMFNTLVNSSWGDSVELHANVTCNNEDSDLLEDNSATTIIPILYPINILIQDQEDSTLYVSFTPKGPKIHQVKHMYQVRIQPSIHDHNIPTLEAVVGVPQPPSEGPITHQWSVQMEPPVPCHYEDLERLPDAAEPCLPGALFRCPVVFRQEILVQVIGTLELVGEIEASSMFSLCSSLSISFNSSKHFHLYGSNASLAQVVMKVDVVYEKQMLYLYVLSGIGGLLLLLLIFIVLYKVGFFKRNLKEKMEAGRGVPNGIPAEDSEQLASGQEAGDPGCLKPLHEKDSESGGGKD
T1 sequence (P05107 23-769, chain 2 of 2): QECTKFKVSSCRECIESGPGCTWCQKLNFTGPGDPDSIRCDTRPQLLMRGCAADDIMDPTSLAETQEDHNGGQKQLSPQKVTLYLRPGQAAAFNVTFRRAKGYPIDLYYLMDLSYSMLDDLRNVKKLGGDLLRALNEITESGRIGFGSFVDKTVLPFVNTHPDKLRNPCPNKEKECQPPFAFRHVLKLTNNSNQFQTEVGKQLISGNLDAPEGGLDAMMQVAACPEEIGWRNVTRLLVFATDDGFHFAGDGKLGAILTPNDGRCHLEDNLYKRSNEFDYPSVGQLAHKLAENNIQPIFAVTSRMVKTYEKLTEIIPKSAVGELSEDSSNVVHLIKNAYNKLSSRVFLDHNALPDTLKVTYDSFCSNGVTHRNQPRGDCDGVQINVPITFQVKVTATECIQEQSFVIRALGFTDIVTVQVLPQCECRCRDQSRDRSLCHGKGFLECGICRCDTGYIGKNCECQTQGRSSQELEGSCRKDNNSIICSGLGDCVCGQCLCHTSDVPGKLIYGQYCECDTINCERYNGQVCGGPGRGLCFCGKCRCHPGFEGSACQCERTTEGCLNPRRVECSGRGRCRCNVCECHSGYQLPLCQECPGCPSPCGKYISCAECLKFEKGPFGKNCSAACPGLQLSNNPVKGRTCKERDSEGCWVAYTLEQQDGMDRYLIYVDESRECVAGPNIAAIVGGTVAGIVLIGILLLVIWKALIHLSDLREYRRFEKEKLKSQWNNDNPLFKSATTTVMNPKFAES

B1: GST-SHARPIN^WT (natural protein, UniProt Q9H0F6 1-387, looked up)
chain: MAPPAGGAAAAASDLGSAAVLLAVHAAVRPLGAGPDAEAQLRRLQLSADPERPGRFRLELLGAGPGAVNLEWPLESVSYTIRGPTQHELQPPPGGPGTLSLHFLNPQEAQRWAVLVRGATVEGQNGSKSNSPPALGPEACPVSLPSPPEASTLKGPPPEADLPRSPGNLTEREELAGSLARAIAGGDEKGAAQVAAVLAQHRVALSVQLQEACFPPGPIRLQVTLEDAASAASAASSAHVALQVHPHCTVAALQEQVFSELGFPPAVQRWVIGRCLCVPERSLASYGVRQDGDPAFLYLLSAPREAPATGPSPQHPQKMDGELGRLFPPSLGLPPGPQPAASSLPSPLQPSWSCPSCTFINAPDRPGCEMCSTQRPCTWDPLAAAST
notes: also called GST-SHARPIN (full-length); source: E. coli strain Rosetta BL21DE3, purified
For the molecule B1, the binding result is listed as “binds”.

B2: GST-SHARPIN^L276A (natural protein, UniProt Q9H0F6 1-387, looked up)
chain: B1 chain with L276A
notes: source: E. coli strain Rosetta BL21DE3, purified
With B2, the binding result is reported as “binds”.
